EC50 and Kd data for 2 molecules are collected here from PMC13108567 (2026).

The target of test [1] is human programmed cell death protein 1 on PD-1 hi transgenic Jurkat cells (human, UniProt Q15116 25-288). The test is described as follows: FACS. (A flow cytometer gives signals particle by particle.)
In another test the target is PD-1 biotinylated dimer (human, UniProt Q15116 25-288, biotin). In words: BLI. For orientation: Biolayer interferometry detects binding as a change in optical thickness at a sensor tip.
Sequence of PD-1 biotinylated dimer (Q15116 25-170): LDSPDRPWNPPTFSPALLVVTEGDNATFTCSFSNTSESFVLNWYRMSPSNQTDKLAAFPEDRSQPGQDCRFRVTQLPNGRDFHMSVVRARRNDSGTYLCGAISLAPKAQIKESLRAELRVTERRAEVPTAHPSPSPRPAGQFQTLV

What is called EC50 is the concentration needed to bring the measured effect to its halfway point. For orientation: Kd means the equilibrium constant for the complex coming apart. Read a high Kd as lower affinity.

Sequence of human programmed cell death protein 1 on PD-1 hi transgenic Jurkat cells (Q15116 25-288): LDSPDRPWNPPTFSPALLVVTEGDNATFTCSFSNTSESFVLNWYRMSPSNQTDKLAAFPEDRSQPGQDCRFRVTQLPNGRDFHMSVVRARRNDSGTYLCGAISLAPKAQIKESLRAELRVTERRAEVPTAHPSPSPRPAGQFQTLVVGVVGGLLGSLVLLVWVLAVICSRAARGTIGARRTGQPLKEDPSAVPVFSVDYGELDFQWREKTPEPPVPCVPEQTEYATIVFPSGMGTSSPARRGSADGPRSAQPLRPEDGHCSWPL

B1: Fab of anti-PD-1 clone 135c139d6 (Fab, V domains shown)
VH: EVQLVQSGAEVKKPGESLKISCKGSGYSFTNFYIHWVRQAPGQRLEWMGSIYPNYGDTAYNQKFKDRFVFSLDTSVSTAYLQISSLKAEDTAVYYCARGYSYAMDYWGQGTTVTVSS
VL: DIQMTQSPSSVSASVGDRVTITCSASQGISGDLNWYQQKPGKAPKLLIYHTSSLHSGVPSRFSGSGSGTDFTLTISSLQPEDFATYYCQYYSKDLLTFGGGTKLEIK
For B1, a half-maximal response in test [1] (EC50) required 42 nM. Further, the affinity with PD-1 biotinylated dimer, expressed as Kd, was 16 nM.

B2: scFv-His of anti-PD-1 clone 135c139d6 (scFv, V domains shown)
VH: B1 VH
VL: B1 VL
Molecule B2 displayed an EC50 in test [1] of 162 nM. Further, the affinity with PD-1 biotinylated dimer, expressed as Kd, was 10 nM.
